Reference: paper PMC10786891, “Massively parallel profiling of RNA-targeting CRISPR-Cas13d”
Changes are numbered by the printed parent chain. In names and notes the source's numbering stands.

B1: target 1 insC 3' of 18,insU 3' of 12 (mixed)
RNA 1: CACCCGUGCAAAAAUGCAGGGGUCUAAAACUGAGCGGAUAACCUCUCUAUGG
RNA 2: GGGAAUGGAUCCACAUCUACGAAUUCGUACCAUACGAGAGGUUUAUCCGCUCACCGAGAUCGGAAGAGCACACGU
B2: target 1 insA 3' of 22,insC 3' of 15 (mixed)
RNA 1: B1 RNA 1
RNA 2: B1 RNA 2 with C31A, A32C, U33A, A34U, C35A, A39C, G40A, U42G
B3: target 1 insC 3' of 9,insG 3' of 6 (mixed)
RNA 1: B1 RNA 1
RNA 2: GGGAAUGGAUCCACAUCUACGAAUUCGUACCAUAGAGAGGUUACUCCGGCUCACCGAGAUCGGAAGAGCACACGU
B4: target 1 insG 3' of 7,insU 3' of 2 (mixed)
RNA 1: B1 RNA 1
RNA 2: B3 RNA 2 with C44U, U45C, C46G, G49C, C50U, U51C, C52U
B5: target 1 A14C (mixed)
RNA 1: B1 RNA 1
RNA 2: GGGAAUGGAUCCACAUCUACGAAUUCGUACCAUAGAGCGGUUAUCCGCUCACCGAGAUCGGAAGAGCACACGU
B6: target 1 insG 3' of 21,insA 3' of 8 (mixed)
RNA 1: B1 RNA 1
RNA 2: B1 RNA 2 with A32G, U33A, A34U, C35A, U44A, A45U, U46A
B7: target 1 insA 3' of 21,insA 3' of 19 (mixed)
RNA 1: B1 RNA 1
RNA 2: B1 RNA 2 with U33A, A34U, C35A, G36A, A37G, G38A, A39G, G40A, U42G
B8: target 1 insC 3' of 11,insA 3' of 8 (mixed)
RNA 1: B1 RNA 1
RNA 2: B3 RNA 2 with U42C, A43U, C44A, C46A, G48C
B9: target 1 insC 3' of 10,insG 3' of 8 (mixed)
RNA 1: B1 RNA 1
RNA 2: B3 RNA 2 with A43C, C44A, C46G, G48C
B10: target 1 G5U,G15U (mixed)
RNA 1: B1 RNA 1
RNA 2: B5 RNA 2 with G37U, C38A, G47U
B11: target 1 insU 3' of 4,insU 3' of 1 (mixed)
RNA 1: B1 RNA 1
RNA 2: B3 RNA 2 with C44U, U45C, C47G, G48C, G49U, C50U, U51C, C52A, A53U
B12: target 1 insU 3' of 17,insG 3' of 9 (mixed)
RNA 1: B1 RNA 1
RNA 2: B1 RNA 2 with C35G, G36U, U44A, A45G
B13: target 1 A9G,U11G (mixed)
RNA 1: B1 RNA 1
RNA 2: B5 RNA 2 with C38A, U41G, A43G
B14: target 1 A18U (mixed)
RNA 1: B1 RNA 1
RNA 2: B5 RNA 2 with A34U, C38A
B15: target 1 A1C,A18U (mixed)
RNA 1: B1 RNA 1
RNA 2: B5 RNA 2 with A34U, C38A, A51C
B16: target 1 A1G,A18U (mixed)
RNA 1: B1 RNA 1
RNA 2: B5 RNA 2 with A34U, C38A, A51G
B17: target 1 insC 3' of 19,insA 3' of 13 (mixed)
RNA 1: B1 RNA 1
RNA 2: B1 RNA 2 with A34C, C35A, G41A, U42G
B18: target 1 A16U,G17A (mixed)
RNA 1: B1 RNA 1
RNA 2: B5 RNA 2 with G35A, A36U, C38A
B19: target 1 insC 3' of 20,insA 3' of 15 (mixed)
RNA 1: B1 RNA 1
RNA 2: B1 RNA 2 with U33C, A34U, C35A, G40A, U42G
B20: target 1 A9C,U10G (mixed)
RNA 1: B1 RNA 1
RNA 2: B5 RNA 2 with C38A, U42G, A43C
B21: target 1 insU 3' of 12,insG 3' of 6 (mixed)
RNA 1: B1 RNA 1
RNA 2: B3 RNA 2 with A43U, C44A
B22: target 1 insA 3' of 21,insG 3' of 3 (mixed)
RNA 1: B1 RNA 1
RNA 2: GGGAAUGGAUCCACAUCUACGAAUUCGUACCAAUAGAGAGGUUAUCCGCUGCACCGAGAUCGGAAGAGCACACGU
B23: target 1 insA 3' of 17,insC 3' of 13 (mixed)
RNA 1: B1 RNA 1
RNA 2: B1 RNA 2 with C35G, G36A, G41C, U42G
B24: target 1 U3C,G12C (mixed)
RNA 1: B1 RNA 1
RNA 2: B5 RNA 2 with C38A, G40C, U49C
B25: target 1 A1U,A18U (mixed)
RNA 1: B1 RNA 1
RNA 2: B5 RNA 2 with A34U, C38A, A51U
B26: target 1 insG 3' of 21,insG 3' of 8 (mixed)
RNA 1: B1 RNA 1
RNA 2: B22 RNA 2 with A32G, C46G, G48C, C49G, U50C, G51U
B27: target 1 C22G (mixed)
RNA 1: B1 RNA 1
RNA 2: B5 RNA 2 with C30G, C38A
B28: target 1 C6A,U10G (mixed)
RNA 1: B1 RNA 1
RNA 2: B5 RNA 2 with C38A, U42G, C46A
B29: target 1 insA 3' of 13,insU 3' of 4 (mixed)
RNA 1: B1 RNA 1
RNA 2: B3 RNA 2 with G40A, U41G, A43U, C44A, G49C, C50U
B30: target 1 insG 3' of 22,insC 3' of 15 (mixed)
RNA 1: B1 RNA 1
RNA 2: B1 RNA 2 with C31G, A32C, U33A, A34U, C35A, A39C, G40A, U42G
B31: target 1 insU 3' of 15,insG 3' of 14 (mixed)
RNA 1: B1 RNA 1
RNA 2: B1 RNA 2 with C35G, G36A, A37G, G38U, U42G
B32: target 1 insU 3' of 20,insA 3' of 15 (mixed)
RNA 1: B1 RNA 1
RNA 2: B1 RNA 2 with A34U, C35A, G40A, U42G
B33: target 1 insG 3' of 8,insU 3' of 2 (mixed)
RNA 1: B1 RNA 1
RNA 2: B3 RNA 2 with C44U, U45G, G49C, C50U, U51C, C52U

target: T1, EsCas13d, nuclease-dead (Eubacterium siraeum, UniProt B0MS50, R295A;H300A;R849A;H854A); assay: crRNA (strand 1, pre-loaded); Mg2+; 40 mM Tris-HCl pH 7.5, 150 mM NaCl, 6 mM MgCl2, 1 mM DTT, 0.1% Tween-20, 0.2 mg/ml BSA; 25 C; 10 min per concentration, then washed; conditions: tags: His6-TwinStrep-SUMO cleaved; N-terminal SNAP kept (SNAP-Surface 488); label: 3' end held by stalled T7 RNA polymerase
T1 sequence: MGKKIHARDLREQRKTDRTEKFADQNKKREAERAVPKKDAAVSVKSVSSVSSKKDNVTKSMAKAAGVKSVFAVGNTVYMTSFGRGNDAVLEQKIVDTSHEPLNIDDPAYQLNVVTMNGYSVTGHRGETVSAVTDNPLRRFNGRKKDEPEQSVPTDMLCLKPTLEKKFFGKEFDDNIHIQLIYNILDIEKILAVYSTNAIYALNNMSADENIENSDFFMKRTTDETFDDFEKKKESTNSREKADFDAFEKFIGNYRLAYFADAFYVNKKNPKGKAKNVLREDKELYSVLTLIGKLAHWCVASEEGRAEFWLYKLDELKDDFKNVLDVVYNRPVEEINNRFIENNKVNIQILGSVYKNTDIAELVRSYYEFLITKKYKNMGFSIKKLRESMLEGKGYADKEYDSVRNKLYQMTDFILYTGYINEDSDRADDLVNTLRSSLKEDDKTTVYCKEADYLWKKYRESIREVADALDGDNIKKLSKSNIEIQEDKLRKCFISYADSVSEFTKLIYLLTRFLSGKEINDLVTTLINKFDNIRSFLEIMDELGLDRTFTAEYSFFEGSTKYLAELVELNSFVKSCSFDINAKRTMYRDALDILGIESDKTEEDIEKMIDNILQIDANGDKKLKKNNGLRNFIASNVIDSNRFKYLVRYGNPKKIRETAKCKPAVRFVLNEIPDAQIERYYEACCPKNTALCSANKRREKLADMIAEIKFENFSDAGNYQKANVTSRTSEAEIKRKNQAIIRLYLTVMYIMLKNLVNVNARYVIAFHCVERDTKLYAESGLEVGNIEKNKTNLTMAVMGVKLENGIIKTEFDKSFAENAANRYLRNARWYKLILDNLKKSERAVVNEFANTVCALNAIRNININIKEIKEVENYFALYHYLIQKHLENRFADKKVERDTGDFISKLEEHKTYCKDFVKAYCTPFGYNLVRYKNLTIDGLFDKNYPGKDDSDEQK

Binder | Kd
B1 | 28.6 ± 1.7 nM
B2 | 28.5 ± 2.2 nM
B3 | 14.4 ± 1.2 nM
B4 | 9.6 ± 0.9 nM
B5 | 31 ± 7 nM
B6 | 64 ± 11 nM
B7 | 32.2 ± 2.4 nM
B8 | 41.4 ± 3.2 nM
B9 | 15.7 ± 0.8 nM
B10 | 31 ± 4 nM
B11 | 8.56 ± 0.33 nM
B12 | 38 ± 4 nM
B13 | 15.1 ± 0.7 nM
B14 | 26.4 ± 1.2 nM
B15 | ~40 nM
B16 | 24.6 ± 1.7 nM
B17 | 19.5 ± 1.7 nM

Binder | Kd
B18 | 44 ± 6 nM
B19 | 12.2 ± 1.1 nM
B20 | 16.1 ± 0.6 nM
B21 | 6.24 ± 0.17 nM
B22 | 11.8 ± 0.6 nM
B23 | 35 ± 4 nM
B24 | 14 ± 2.3 nM
B25 | 22 ± 2 nM
B26 | 58 ± 10 nM
B27 | 61 ± 11 nM
B28 | 13.9 ± 0.7 nM
B29 | 3.45 ± 0.26 nM
B30 | 48 ± 4 nM
B31 | 22.5 ± 2.2 nM
B32 | 7.6 ± 0.5 nM
B33 | 15.1 ± 0.6 nM
